From publication doi:10.1101/2021.12.16.472899 (bioRxiv, 2021) come the findings set out here.

The labels stand for the following.
B1: Lhca1 (natural protein, UniProt Q01667 36-241, looked up)
chain: AGNVGRIRMAAHWMPGEPRPAYLDGSAPGDFGFDPLGLGEVPANLERYKESELIHCRWAMLAVPGILVPEALGYGNWVKAQEWAALPGGQATYLGNPVPWGTLPTILAIEFLAIAFVEHQRSMEKDPEKKKYPGGAFDPLGYSKDPKKLEELKVKEIKNGRLALLAFVGFCVQQSAYPGTGPLENLATHLADPWHNNIGDIVIPFN
B2: PnsL3 (natural protein)
chain: not shown
B3: NdhC (natural protein, UniProt P56751 1-120, looked up)
chain: MFLLYEYDIFWAFLLISSAIPVLAFLISGVLSPIRKGPEKLSSYESGIEPIGDAWLQFRIRYYMFALVFVVFDVETVFLYPWAMSFDVLGVSAFIEAFIFVLILILGLVYAWRKGALEWS
B4: PnsB5 (natural protein, UniProt Q9FG89 49-212, looked up)
chain: AAGLSQIEPDINEDPIGQFETNSIEMEDFKYGYYDGAHTYYEGEVQKGTFWGAIADDIAAVDQTNGFQGLISCMFLPAIALGMYFDAPGEYLFIGAALFTVVFCIIEMDKPDQPHNFEPQIYKLERGARDKLINDYNTMSIWDFNDKYGDVWDFTIEKDDIATR
B5: PnsB4 (natural protein, UniProt Q8RXS1 25-175, looked up)
chain: QNSGPNHGYWLSKNVNEKRERNLMRGSLCVRKALPHDLPLMAVMVQQIEGMRDIITEKHVWHLSDKAIKNVYMFYIMFTCWGCLYFGSAKDPFYDSEEYRGDGGDGTGYWVYETQEDIEEKARAELWREELIEEIEQKVGGLRELEEAVTK
B6: NdhE (natural protein, UniProt P26289 1-101, looked up)
chain: MILEHVLVLSAYLFLIGLYGLITSRNMVRALMCLELILNAVNMNFVTFSDFFDNSQLKGEIFCIFVIAIAAAEAAIGLAIVSSIYRNRKSIRINQSTLLNK

Test in all cases: cryo-EM structure
In one experiment the target is T1, Lhca5 (Arabidopsis thaliana (endogenous in the …, UniProt Q9C639 33-256)).
T1 sequence (looked up): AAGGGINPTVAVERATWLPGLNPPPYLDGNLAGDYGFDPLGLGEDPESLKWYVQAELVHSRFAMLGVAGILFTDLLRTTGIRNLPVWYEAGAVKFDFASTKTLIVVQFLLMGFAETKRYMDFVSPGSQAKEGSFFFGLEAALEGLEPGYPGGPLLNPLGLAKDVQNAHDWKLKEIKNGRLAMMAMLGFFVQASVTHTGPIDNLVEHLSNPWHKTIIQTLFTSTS

The experiment “PnsB4” has as its target B5.
A further experiment has as its target NdhF (Arabidopsis thaliana (endogenous in the …, UniProt P56752 1-746)).
Another experiment has as its target T2, NdhD (Arabidopsis thaliana (endogenous in the …, UniProt P26288 1-500)).
T2 sequence (looked up): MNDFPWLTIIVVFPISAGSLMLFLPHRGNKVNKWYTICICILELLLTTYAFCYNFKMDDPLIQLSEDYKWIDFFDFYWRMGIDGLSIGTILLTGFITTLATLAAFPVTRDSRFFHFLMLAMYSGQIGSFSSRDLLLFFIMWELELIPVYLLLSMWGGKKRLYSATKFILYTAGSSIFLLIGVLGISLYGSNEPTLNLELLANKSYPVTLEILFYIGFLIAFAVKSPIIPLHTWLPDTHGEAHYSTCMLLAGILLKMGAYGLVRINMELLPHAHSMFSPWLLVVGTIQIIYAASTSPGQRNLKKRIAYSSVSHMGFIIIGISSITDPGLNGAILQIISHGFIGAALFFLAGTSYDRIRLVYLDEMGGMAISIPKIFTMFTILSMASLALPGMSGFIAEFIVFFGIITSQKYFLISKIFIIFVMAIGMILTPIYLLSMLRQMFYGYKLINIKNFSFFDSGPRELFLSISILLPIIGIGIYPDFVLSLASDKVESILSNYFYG

The target in the next experiment is T3, PnsL2 (Arabidopsis thaliana (endogenous in the …, UniProt Q9XI73 69-190)).
T3 sequence (looked up): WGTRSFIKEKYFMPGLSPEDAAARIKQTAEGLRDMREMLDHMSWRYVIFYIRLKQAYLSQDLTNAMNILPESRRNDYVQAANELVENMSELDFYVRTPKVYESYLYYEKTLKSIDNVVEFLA

The target in another experiment is T4, PnsL1 (Arabidopsis thaliana (endogenous in the …, UniProt O80634 81-238)).
T4 sequence (looked up): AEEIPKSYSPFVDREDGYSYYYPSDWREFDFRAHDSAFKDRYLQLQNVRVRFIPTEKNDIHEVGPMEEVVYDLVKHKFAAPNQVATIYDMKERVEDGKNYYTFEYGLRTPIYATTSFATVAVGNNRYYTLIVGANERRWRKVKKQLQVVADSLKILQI

The target in another experiment is T5, PnsB1 (Arabidopsis thaliana (endogenous in the …, UniProt Q9S9N6 45-461)).
T5 sequence (looked up): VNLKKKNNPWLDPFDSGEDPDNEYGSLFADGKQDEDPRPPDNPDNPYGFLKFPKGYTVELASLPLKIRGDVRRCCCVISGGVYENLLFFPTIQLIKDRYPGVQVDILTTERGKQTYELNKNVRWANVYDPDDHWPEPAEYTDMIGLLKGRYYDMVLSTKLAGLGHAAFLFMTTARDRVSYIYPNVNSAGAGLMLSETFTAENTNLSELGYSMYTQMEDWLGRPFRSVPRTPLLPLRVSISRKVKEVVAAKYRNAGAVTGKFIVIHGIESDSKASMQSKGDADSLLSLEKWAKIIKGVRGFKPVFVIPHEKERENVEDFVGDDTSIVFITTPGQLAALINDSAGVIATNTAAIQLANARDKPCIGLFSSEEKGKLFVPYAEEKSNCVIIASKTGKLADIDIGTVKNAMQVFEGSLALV

For another experiment, the target named is T6, Lhca6 (Arabidopsis thaliana (endogenous in the …, UniProt Q8LCQ4 34-270)).
T6 sequence (looked up): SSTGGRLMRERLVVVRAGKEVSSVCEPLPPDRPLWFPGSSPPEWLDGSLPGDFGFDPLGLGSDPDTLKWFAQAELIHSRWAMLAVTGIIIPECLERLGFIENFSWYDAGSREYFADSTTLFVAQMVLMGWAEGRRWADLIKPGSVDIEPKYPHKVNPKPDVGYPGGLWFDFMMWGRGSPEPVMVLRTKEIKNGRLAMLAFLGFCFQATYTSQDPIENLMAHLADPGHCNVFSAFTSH

The experiment “PnsB5” concerns the target B4.

Sequence of NdhF (Arabidopsis thaliana (P56752 whole entry): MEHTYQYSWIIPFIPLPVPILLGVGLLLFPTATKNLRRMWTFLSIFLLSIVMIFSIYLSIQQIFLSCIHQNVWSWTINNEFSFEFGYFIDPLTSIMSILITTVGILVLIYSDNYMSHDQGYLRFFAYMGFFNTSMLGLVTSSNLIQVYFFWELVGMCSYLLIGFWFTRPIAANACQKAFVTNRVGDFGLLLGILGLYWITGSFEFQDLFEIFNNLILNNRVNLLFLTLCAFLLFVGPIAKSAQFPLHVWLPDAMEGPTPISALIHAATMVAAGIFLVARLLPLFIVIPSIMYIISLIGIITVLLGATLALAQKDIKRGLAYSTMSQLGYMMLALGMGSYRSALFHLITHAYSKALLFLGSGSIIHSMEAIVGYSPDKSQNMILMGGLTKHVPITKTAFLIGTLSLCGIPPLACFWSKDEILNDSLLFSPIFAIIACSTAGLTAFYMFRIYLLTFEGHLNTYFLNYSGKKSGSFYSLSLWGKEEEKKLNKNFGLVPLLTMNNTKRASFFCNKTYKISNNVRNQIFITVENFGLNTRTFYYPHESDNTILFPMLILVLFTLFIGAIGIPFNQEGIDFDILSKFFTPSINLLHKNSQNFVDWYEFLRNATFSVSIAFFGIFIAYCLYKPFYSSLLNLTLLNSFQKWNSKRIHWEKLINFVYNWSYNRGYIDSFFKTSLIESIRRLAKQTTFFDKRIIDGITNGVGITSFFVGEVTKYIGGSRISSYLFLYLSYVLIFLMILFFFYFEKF

On to B1, for which the binding result in the experiment with Lhca5 was “binds”.
As to B2, the binding result with PnsB4, with NdhF and in the experiment with NdhD was “binds” throughout.
Take B3: the binding result in the experiment with PnsL2 and in the experiment with PnsL1 was “binds” in each case.
As for B4, the binding result with PnsB1, with NdhD and with Lhca6 was “binds” in each case.
On to B5, for which the binding result in the experiment with PnsB5, in the experiment with PnsB1 and with NdhD was “binds” throughout.
In the case of B6, the binding result in the experiment with PnsL2 and in the experiment with PnsL1 was “binds” in each case.
